# Source: patent US6001575
# Target: GRIP (full length, 1112 amino acids, 130 kDa protein) (rat)
row,Substance,GluR1 Clusters (synaptic AMPA receptor clusters in transfected spinal cord neurons) (GluR1 Clusters)
1,"myc-tagged GluR1C (C-terminal 50 amino acids of the GluR1 subunit, transfected into neurons) (receptor)",3.6
2,"myc-tagged GluR2C (C-terminal 50 amino acids of the GluR2 subunit, transfected into neurons) (from UniProt P19491) (receptor)",1.2
3,"myc-tagged GluR2C Δ7 (GluR2 C-terminus lacking the last 7 amino acids, transfected into neurons) (from UniProt P19491) (receptor)",2.9
